Measured values: patent US20130004522A1, “PHOTOTRIGGERED NANOPARTICLES FOR CELL AND TISSUE TARGETING” (priority 2009, published 2013)
Where no end group is shown, it is not given here. The star is where a group is joined. DMNB = 4,5-dimethoxy-2-nitrobenzyl photo-removable caging group, COc1cc(C*)c([N+](=O)[O-])cc1OC

Assays:
integrin β1 = integrin β1 (Homo sapiens, UniProt P05556); settings: previously shown; cited from earlier work
[1] = Un-caging of the caged peptide targeter in solution by HPLC-UV; assay type: physicochemical; settings: ten seconds post illumination, retention time shifts to that of the non-caged targeter
Method: HPLC assays were performed on an HP 1100 HPLC system. Samples were injected in 50-μl volumes onto a C18 column. The column was eluted with an aqueous solution at 1 ml/min. The peptides were detected by a UV detector with absorbance wavelength set at 230 nm.
In order to determine the un-caging ability of the targeter (e.g., the peptide GGGGY(DMNB)IGSR—NH2 (SEQ ID NO: 2)) leading to its transformation to the active state, solutions of non-caged peptide (GGGGYIGSR-NH2) (SEQ ID NO: 2), or caged peptides subjected or not subjected to 1 min of illumination were evaluated by HPLC-UV. Retention time in the column of the non-caged targeter was ˜20 min (FIG. 3A) while that of the non-illuminated caged targeter was longer (˜30 min, FIG. 3B) due to the caging group existence which increases the hydrophobicity of the peptide. Ten seconds post illumination a shift in the retention time had occurred and the peptide had exited the column after ˜20 min (FIG. 3C).

Chain of integrin β1 (P05556 21-798, species assumed): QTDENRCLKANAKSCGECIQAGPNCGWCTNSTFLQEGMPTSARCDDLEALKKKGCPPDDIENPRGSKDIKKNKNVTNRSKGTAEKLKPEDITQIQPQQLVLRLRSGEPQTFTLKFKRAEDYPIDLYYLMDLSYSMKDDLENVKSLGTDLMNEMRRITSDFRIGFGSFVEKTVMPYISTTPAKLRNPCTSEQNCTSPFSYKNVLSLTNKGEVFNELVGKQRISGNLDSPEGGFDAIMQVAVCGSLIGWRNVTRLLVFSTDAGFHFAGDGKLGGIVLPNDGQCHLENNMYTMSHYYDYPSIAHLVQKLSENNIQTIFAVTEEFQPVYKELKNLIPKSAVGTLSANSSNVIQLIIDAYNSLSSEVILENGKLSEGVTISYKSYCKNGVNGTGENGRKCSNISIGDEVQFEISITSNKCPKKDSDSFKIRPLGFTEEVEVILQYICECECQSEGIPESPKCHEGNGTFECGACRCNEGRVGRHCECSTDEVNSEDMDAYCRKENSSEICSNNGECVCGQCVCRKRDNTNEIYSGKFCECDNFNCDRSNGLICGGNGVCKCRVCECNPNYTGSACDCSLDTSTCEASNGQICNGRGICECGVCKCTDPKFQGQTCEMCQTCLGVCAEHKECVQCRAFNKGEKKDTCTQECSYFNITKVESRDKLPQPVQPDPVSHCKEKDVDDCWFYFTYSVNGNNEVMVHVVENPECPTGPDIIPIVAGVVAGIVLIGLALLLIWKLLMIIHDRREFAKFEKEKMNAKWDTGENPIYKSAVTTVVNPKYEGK

Substance	cell adhesion and migration (integrin β1)	release of the caging group from the peptide after illumination [1]
CDPGYIGSR	promote cell adhesion and migration	
GGGGY(DMNB)IGSR—NH2 (GGGGY(DMNB)IGSR-NH2; N-terminus assumed; SMILES CC[C@H](C)[C@H](NC(=O)[C@H](Cc1ccc(OCc2cc(OC)c(OC)cc2[N+](=O)[O-])cc1)NC(=O)CNC(=O)CNC(=O)CNC(=O)CN)C(=O)NCC(=O)N[C@@H](CO)C(=O)N[C@@H](CCCNC(=N)N)C(N)=O)		quick release of the caging group
YIGSR-NH2	promote cell adhesion and migration	
